The results in this text go back to paper PMC10954474, “https://orcid.org/0000-0002-6027-2265 Manakova Elena Institute of Biotechnology, Life Sciences Center, Vilnius University, Sauletekio av. 7, LT-10257, Vilnius, Lithuania”.

In series [1] the target is T1, AfAgo;AfAgo-N (Archaeoglobus fulgidus …, UniProt O28951;A0A075WKW4 1-427;1-250, |). Kind of series: EMSA; 5 mM Mg2+; EMSA: 40 mM Tris-acetate, 1 mM EDTA, pH 8.4, 5 mM Mg(OAc)2, 0.1 mg/ml BSA, 1 mM DTT, 10% glycerol, room temperature (25 C), 1 h. As to conditions: protein: recombinant;recombinant, tags: ;His6-TEV (N-terminal), copies: 1;1, label: 5'-32P.
Series [2] has as its target T1, AfAgo;AfAgo-N. Put plainly: X-ray crystallography; 2.5 A; 5 mM Mg2+; EMSA: 40 mM Tris-acetate, 1 mM EDTA, pH 8.4, 5 mM Mg(OAc)2, 0.1 mg/ml BSA, 1 mM DTT, 10% glycerol, room temperature (25 C), 1 h. The conditions noted are these: protein: recombinant;recombinant; tags: ;His6-TEV (N-terminal); copies: 1;1; 2 strands partially annealed, 3 bp, in crystal.
The next series concerns the target T2, AfAgo (Archaeoglobus fulgidus DSM4304, UniProt O28951 1-427).
T2 sequence: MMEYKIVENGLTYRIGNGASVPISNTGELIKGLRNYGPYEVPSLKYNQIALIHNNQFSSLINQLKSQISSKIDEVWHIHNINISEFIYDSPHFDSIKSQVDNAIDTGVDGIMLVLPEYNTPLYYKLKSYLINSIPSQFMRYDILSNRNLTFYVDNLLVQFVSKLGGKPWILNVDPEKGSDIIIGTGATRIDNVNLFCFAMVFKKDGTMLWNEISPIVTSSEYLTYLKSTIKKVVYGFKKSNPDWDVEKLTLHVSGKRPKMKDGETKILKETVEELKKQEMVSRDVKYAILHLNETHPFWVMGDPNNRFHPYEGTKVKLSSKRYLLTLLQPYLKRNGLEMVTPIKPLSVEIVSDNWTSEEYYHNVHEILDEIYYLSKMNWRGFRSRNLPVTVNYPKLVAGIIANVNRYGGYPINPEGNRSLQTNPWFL
Put plainly: EMSA; 5 mM Mg2+; EMSA: 40 mM Tris-acetate, 1 mM EDTA, pH 8.4, 5 mM Mg(OAc)2, 0.1 mg/ml BSA, 1 mM DTT, 10% glycerol, room temperature (25 C), 1 h. The conditions noted are these: protein: recombinant; label: 5'-32P; blunt.

Series [3] addresses T1, AfAgo;AfAgo-N. Put plainly: EMSA; preloaded guide, 5 mM Mg2+; EMSA: 40 mM Tris-acetate, 1 mM EDTA, pH 8.4, 5 mM Mg(OAc)2, 0.1 mg/ml BSA, 1 mM DTT, 10% glycerol, room temperature (25 C), 1 h. As to conditions: protein: recombinant;recombinant; tags: ;His6-TEV (N-terminal); copies: 1;1; label: 5'-32P target; g1-g8 complementary.
The target of series [4] is T1, AfAgo;AfAgo-N. Kind of series: cryo-EM; 3.56 A; EMSA: 40 mM Tris-acetate, 1 mM EDTA, pH 8.4, 5 mM Mg(OAc)2, 0.1 mg/ml BSA, 1 mM DTT, 10% glycerol, room temperature (25 C), 1 h. The conditions noted are these: protein: recombinant;recombinant; tags: ;His6-TEV (N-terminal); copies: 1;1; blunt.
For series [5], the target named is T1, AfAgo;AfAgo-N. Kind of series: cryo-EM; 2.83 A; EMSA: 40 mM Tris-acetate, 1 mM EDTA, pH 8.4, 5 mM Mg(OAc)2, 0.1 mg/ml BSA, 1 mM DTT, 10% glycerol, room temperature (25 C), 1 h. The conditions noted are these: protein: recombinant;recombinant; tags: ;His6-TEV (N-terminal); copies: 1;1; 30 nt guide on 51 nt target with target overhangs.
The target in series [6] is T1, AfAgo;AfAgo-N. Put plainly: SEC-SAXS; 5 mM Mg2+; SASDRX8; EMSA: 40 mM Tris-acetate, 1 mM EDTA, pH 8.4, 5 mM Mg(OAc)2, 0.1 mg/ml BSA, 1 mM DTT, 10% glycerol, room temperature (25 C), 1 h. As to conditions: protein: recombinant;recombinant; tags: ;His6-TEV (N-terminal); copies: 1;1; blunt, self-complementary.

On to AUUGUACACGGCCGAAU (ssRNA) [ssRNA MZ-1480], for which the binding result with AfAgo;AfAgo-N [1] (single-stranded) is “binds”.

Turning to ATCGACCAGGCTACG (ssDNA, 5'-phosphate) [GS-851], the binding result with AfAgo;AfAgo-N [2] is “binds”.

B1: dsDNA MZ-1447/1455 (dsDNA)
DNA 1: ATTGTACACGGCCGAAT
DNA 2: ATTCGGCCGTGTACAAT
modifications: 5'-phosphate
As for B1, the binding result with AfAgo;AfAgo-N [1] (blunt) and in the series with AfAgo was “binds” each time.

B2: gRNA MZ-1480 / tDNA MZ-1560 (DNA:RNA)
RNA: AUUGUACACGGCCGAAU
DNA: CGGAATATATGTACAAT
modifications: 5'-phosphate guide
With B2, the binding result with AfAgo;AfAgo-N [3] is on record as “binds”.

B3: g17/t17 MZ-1800/MZ-1455 (DNA:RNA)
RNA: AUUGUACACGGCCGAAU
DNA: ATTCGGCCGTGTACAAT
modifications: 5'-phosphate guide
On to B3, for which the binding result with AfAgo;AfAgo-N [4] is “binds”.

B4: g30/t51 MZ-1745/MZ-1747 (DNA:RNA)
RNA: AGGAGGGCGGAGCCUAUGGAAAAACGCCAC
DNA: GCCGCGCCGGTGGCGTTTTTCCATAGGCTCCGCCCTCCTGCCAGAGTTCGC
modifications: 5'-phosphate guide
Take B4: in the series with AfAgo;AfAgo-N [5], the binding result is reported as “binds”.

For ATTGTACACGGCCGAAT (ssDNA) [ssDNA MZ-1447], the binding result with AfAgo;AfAgo-N [1] (single-stranded) is “binds”.

B5: MZ-1288 14 bp DNA (dsDNA)
DNA 1: ATTGTGGCCACAAT
DNA 2: ATTGTGGCCACAAT
modifications: 5'-phosphate
Turning to B5, in the series with AfAgo;AfAgo-N [6], the binding result is “binds”.

B6: RNA/DNA MZ-1480/1455 (DNA:RNA)
RNA: AUUGUACACGGCCGAAU
DNA: ATTCGGCCGTGTACAAT
modifications: 5'-phosphate
As to B6, the binding result in the series with AfAgo;AfAgo-N [1] (blunt) and with AfAgo was “binds” in each case.
